In assay [1] the target is carbonic anhydrase II protein (Sigma Aldrich, C2522) (Bos taurus, UniProt P00921). As to the kind of experiment: SPR.
Assay [2] has as its target PTPRZ1 CA protein (Cusabio Technology LLC, CSB-YP019068HU) (Homo sapiens, UniProt P23471). The assay is described as follows: SPR. A general note: Surface plasmon resonance follows binding to a sensor surface in real time, without labels.

The Kd is the constant that tells how readily two partners part at equilibrium. Read a high Kd as lower affinity.

Sequence of PTPRZ1 CA protein (Cusabio Technology LLC, CSB-YP019068HU) (P23471 36-300): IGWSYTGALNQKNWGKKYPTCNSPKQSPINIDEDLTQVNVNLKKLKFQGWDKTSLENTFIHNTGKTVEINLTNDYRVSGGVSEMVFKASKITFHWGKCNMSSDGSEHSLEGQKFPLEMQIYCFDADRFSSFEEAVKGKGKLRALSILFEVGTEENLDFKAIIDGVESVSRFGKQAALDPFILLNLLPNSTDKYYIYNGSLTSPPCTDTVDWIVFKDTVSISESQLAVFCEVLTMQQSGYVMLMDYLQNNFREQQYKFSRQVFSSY
Sequence of carbonic anhydrase II protein (Sigma Aldrich, C2522) (P00921 whole entry): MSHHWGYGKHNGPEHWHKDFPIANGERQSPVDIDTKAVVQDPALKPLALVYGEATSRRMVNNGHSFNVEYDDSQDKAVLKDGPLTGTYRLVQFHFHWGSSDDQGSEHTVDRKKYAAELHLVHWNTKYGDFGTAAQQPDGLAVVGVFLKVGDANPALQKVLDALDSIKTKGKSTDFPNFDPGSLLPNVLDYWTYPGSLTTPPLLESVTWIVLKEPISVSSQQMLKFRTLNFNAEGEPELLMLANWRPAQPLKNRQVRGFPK

B1: anti-PTPRZ1 scFv RB473, scFv-Rabbit Fc (scFv, V domains shown)
VH: not shown
VL: QSVLTQPPSVSAAPGQKVTISCSGSSSNIGNNYVSWYQQLPGTAPKLLIYDNNKRPSGIPDRFSGSKSGTSATLGITGLQTGDEADYYCGTYDYIATRAVFGGGTKLTVL
For the molecule B1, in assay [1], the binding result is “no binding (tested: 800 nM)”. Moreover, the Kd in assay [2] stood at 57.4 nM.
